In publication PMC2859679 (Journal of molecular biology, 2009):

Target: the molecule itself
Assay: crystal structure

B1: MhuD (mycobacterial heme utilization, degrader), Rv3592, from Mycobacterium tuberculosis (enzyme)
chain: MPVVKINAIEVPAGAGPELEKRFAHRAHAVENSPGFLGFQLLRPVKGEERYFVVTHWESDEAFQAWANGPAIAAHAGHRANPVATGASLLEFEVVLDVGGTGKTA
B1: binds.
